Key:
[1] = target: T1, α11β1 expressed on the surface of CHO-K1 cells (Homo sapiens, UniProt Q9UKX5); assay: FACS antibody binding to CHO-K1 cells expressing human α11; conditions: for CHO-K1 binding EC50 (in words): FACS; for CHO-K1 FACS: binding Yes/No
T1 construct: expressed in transfected cells; host or cells: CHO-K1
T1 sequence (Q9UKX5 23-1188): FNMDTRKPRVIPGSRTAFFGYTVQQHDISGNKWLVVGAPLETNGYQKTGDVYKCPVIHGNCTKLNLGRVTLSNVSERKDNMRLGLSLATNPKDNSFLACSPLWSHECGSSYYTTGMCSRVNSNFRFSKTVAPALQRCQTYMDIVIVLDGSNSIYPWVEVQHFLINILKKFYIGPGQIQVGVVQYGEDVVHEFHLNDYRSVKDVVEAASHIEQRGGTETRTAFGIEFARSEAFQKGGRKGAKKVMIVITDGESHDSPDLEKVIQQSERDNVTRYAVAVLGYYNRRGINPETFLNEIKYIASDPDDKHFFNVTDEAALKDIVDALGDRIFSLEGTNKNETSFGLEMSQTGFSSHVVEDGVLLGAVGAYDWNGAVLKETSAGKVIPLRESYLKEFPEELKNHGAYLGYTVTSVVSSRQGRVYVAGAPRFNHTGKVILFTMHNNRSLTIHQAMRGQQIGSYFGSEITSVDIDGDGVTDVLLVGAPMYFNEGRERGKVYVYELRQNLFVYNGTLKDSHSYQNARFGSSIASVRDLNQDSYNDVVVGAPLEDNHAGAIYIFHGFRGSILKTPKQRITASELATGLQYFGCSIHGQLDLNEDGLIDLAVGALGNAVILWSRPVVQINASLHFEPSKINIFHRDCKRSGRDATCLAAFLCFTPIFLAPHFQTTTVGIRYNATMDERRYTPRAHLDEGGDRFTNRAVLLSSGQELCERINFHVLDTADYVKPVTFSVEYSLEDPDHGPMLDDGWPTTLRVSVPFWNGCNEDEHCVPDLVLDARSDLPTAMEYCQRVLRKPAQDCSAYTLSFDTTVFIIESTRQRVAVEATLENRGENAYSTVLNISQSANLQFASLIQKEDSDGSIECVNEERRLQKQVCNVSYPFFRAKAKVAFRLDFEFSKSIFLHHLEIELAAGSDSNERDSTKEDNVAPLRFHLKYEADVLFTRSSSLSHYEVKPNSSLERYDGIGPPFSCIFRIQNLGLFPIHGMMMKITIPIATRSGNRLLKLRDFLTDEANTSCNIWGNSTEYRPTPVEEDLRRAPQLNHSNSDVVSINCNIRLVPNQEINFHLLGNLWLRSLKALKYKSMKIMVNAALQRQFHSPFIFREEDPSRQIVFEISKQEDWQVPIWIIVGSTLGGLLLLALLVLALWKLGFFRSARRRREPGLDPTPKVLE
Experimental: 200,000 cells (wild-type CHO-K1 cells or CHO-K1 cells expressing human α11) were incubated with each antibody at desired concentrations in FACS buffer for 30 min at 4° C. Then, the cells were washed with FACS buffer and incubated with secondary antibody at 1:100 dilution for 30 minutes at 4° C. Cells were then washed and fixed with 1% PFA in PBS for 20 minutes at room temperature; washed again and read on a cytometer in FACS buffer.
Since integrins are large, transmembrane receptors that exist in different conformational shapes, experiments were performed to confirm that the novel antibodies also bound cell-expressed α11β1. A CHO-K1 cell line that endogenously expressed high levels of the β1 subunit was engineered to stably express human α11 (CHO-K1 hu α11).
Binding EC50 was estimated using data from Fluorescence-activated cell sorting (FACS) performed with CHO-K1 hu α11β1 cells.

α1β1, α2β1 and/or α10β1 = assay: Counter-screen for cross-reactivity to other collagen receptors; assay type: binding, human; conditions: cross-reactivity to α1β1, α2β1, α10β1
Experimental: Wistar rats were immunized with recombinant human α11β1 protein. An enzyme-linked immunosorbent assay (ELISA) was used to test an immune response against target human and mouse proteins. Subsequently, cell fusion (by electro fusion) was performed with animals that produced a good immune response. All fused cells were plated in a 96-well plate and supernatants were screened by ELISA against soluble human and mouse α11β1. Positive clones were counter-screened against human α1β1, α2β1 and α10β1. […] Purified antibodies were then generated from the selected clones and heavy chain and light chain variable domain sequences were obtained from each purified antibody.
10 mice from 5 different strains were immunized with an appropriate mixture of human α11β1, mouse α11β1 and tolerance breaking protein. Plasma titers were evaluated by ELISA against a mixture of human and mouse α11β1. Popliteal, inguinal, and iliac lymph nodes were collected. ELISA-positive anti-human/mouse α11β1 hybridomas were expanded and subjected to a secondary screen against human and mouse α11β1, control HIS protein, and a counter-screen was performed against human […], α2β1 and α10β1. Supernatant IgG concentration was sufficient for functional screening. Selected hybridomas satisfying all the criteria were cloned and clonal hybridomas were confirmed by ELISA against human and mouse α11β1 and subsequently scaled-up and IgGs were purified. Heavy and light chain variable regions of selected hybridomas were then sequenced.
α11β1 belongs to a family of collagen receptors and has a relatively high homology to them. Therefore, the novel antibodies of this invention were counter-screened against α1β1, α2β1 and/or α10β1. Table 2 includes results of cross-reactivity to the other receptors.

[2] = test system: Human Pulmonary Fibroblasts; assay: Fibroblast-to-Myofibroblasts Transition (FMT), αSMA expression; assay type: cell-based; conditions: for inhibition of αSMA expression / FMT: TGFβ-induced FMT; for Inhibition of FMT: Yes/No
Experimental: Human Pulmonary Fibroblasts (ScienCell) were cultured in complete Fibroblast Growth Medium (ScienCell) until 80% confluent. Cells were washed and harvested using Accutase. Cells were seeded onto tissue culture-treated 96 well plates at 20,000 cells/well in complete Fibroblast Growth Medium. After 24 hours, cells were washed and starved in serum reduced medium for an additional 24 hours. After starvation, cells were treated with TGFβ-1 (R&D Systems) with or without anti-α11 antibodies. A polyclonal rabbit anti-human α11 antibody was used as a positive control. Appropriate IgG isotype controls were also included. After 48 hours, cells were harvested, fixed, permeabilized and stained with AlexaFluor488 Labeled Anti-αSMA (α-smooth muscle actin) (Invitrogen). Cells were acquired on a FACS Verse (Benton Dickson) to determine expression levels of αSMA. Data were analyzed by gating on single cells and determining the geometric Mean Fluorescence Intensity (gMFI) in the FITC channel for each sample. gMFI for each sample was normalized to the untreated control and presented as % inhibition.
In addition to the binding abilities described above, it is important for an anti-α11β1 antibody to inhibit the fibroblast-to-myofibroblast transition (FMT). It is now appreciated that myofibroblasts are a heterogeneous cell population, existing in different activation states, with the main function of producing and contracting collagen extracellular matrix (ECM). FMT is a multi-step event that is controlled by a changing mechanical environment in tissues undergoing repair. TGFβ is one of the potent factors that potentiates this process and alpha smooth muscle actin (αSMA) is one of the main markers that becomes overexpressed when fibroblasts are undergoing the transition to becoming myofibroblasts. The presence of αSMA enhances fibroblast contraction and guides myofibroblast activation through an intracellular feedback loop. Because αSMA is the main molecular marker of myofibroblasts, the ability of the novel anti-α11β1 mAbs to inhibit αSMA expression in TGFβ-induced FMT was tested.

B1: 9-G05: mouse anti-α11β1 mAb; VH SEQ ID NO: 103, VL SEQ ID NO: 104 (antibody, V domains shown)
VH: EVQLQQSGPELVKPGASVKIPCKASGYTFPDYNMDWVKQSHGKSLEWIGYINPDNGGTIYNQKFKGKATLTVDKSSSTAYMELRSLTSEDTAVYYCARLDSSGYGYYAMDYWGQGTSVTVSS
VL: DIVLTQSPASLAVSLGQRATISCRASESVDNYGISFMHWYQQKPGQPPKLLIYRASNLDSEIPARFSGSGSRTDFTLTIDPVETDDVATYYCQQSYKDPRTFGGGTKLEIK
With B1 the “CHO-K1 binding EC50 (in words)” value [1] was “not as potent”, the “CHO-K1 FACS” value [1] was “Yes” and the “Off Target” value (α1β1, α2β1 and/or α10β1) was “No”. The “inhibition of αSMA expression / FMT” value [2] was “FMT inhibitors” and the “Inhibition of FMT” value [2] was “Yes”.

B2: 8H8E9: rat anti-α11β1 mAb; VH SEQ ID NO: 149, VL SEQ ID NO: 150 (antibody, V domains shown)
VH: MAVLVLLLCLVTFPSCALSQVQLKESGPGLVQPSQTLSLTCTVSGFSLTSNSVSWVRQAPGKGLEWMGAIWSGGSTDYNSALKSRLSISRDTSKSQVFLKMNSLQTEDTAIYFCTRSHWEPFDYWGQGVMVTVSS
VL: MESQTQALISLLLWVYGTCGDIVMTQSPFSLAVSEGEMVTINCKSSQGLLSSGNQKNYLAWYQQRPGQSPKLLIYYASTRQSGVPDRFIGGGSGTDFTLTISDVQAEDLADYYCLQHYSYPPTFGSGTKLEIK
In the case of B2, the “CHO-K1 FACS” value [1] is reported as “Yes”, the “Off Target” value (α1β1, α2β1 and/or α10β1) is reported as “No” and the “Inhibition of FMT” value [2] is reported as “Yes”.

B3: 6E5C11: rat anti-α11β1 mAb; VH SEQ ID NO: 151, VL SEQ ID NO: 152 (antibody, V domains shown)
VH: MAVLVLLLCLVTFPSCALSQVQLRESGPGLVQPSQTLSLTCTVSGFSLTSNSVTWVRQPPGKGLEWMGAIWSDGSTDYNSTLKSRLSISRDTSKSQVFLKMSSLQTEDTAIYFCTRSHWEPFDYWGQGVMVTVSS
VL: MESQTQALISLLLWVYGTCGDIVMTQSPLSLAVSEGETVTMNCKSSQSLFSSGNQKNYLAWYQQKPGQSPKLLIYYASTRQSGVPDRFIGSGSGTDFTLTISDVQTEDLADYYCLQHYNYPPTFGSGTKLEIK
For B3, the “CHO-K1 FACS” value [1] was “Yes”, the “Off Target” value (α1β1, α2β1 and/or α10β1) was “No” and the “Inhibition of FMT” value [2] was “Yes”.

B4: 8-I14: mouse anti-α11β1 mAb; VH SEQ ID NO: 109, VL SEQ ID NO: 110 (antibody, V domains shown)
VH: EVQLQQSGPELVKPGASVKKSCKASGYTFTDYYMHWVKQKPGQGLEWIGKIYPGSGNTHYNEKFKGKATLTADKSSSTAYMQLSSLTSEDSAVYFCATNYYGYRAMNYWGQGSSVTVSS
VL: DIHLTQSPSSLSASLGERISLTCRASQDIYISLNWFQQKPDGTIKLLIYGTSSLDSGVPKRFSGSRSGSDYSLTISSLESEDFADYYCLQYASSPYTFGGGTKLEIK
B4 was tested, and the “CHO-K1 binding EC50 (in words)” value [1] was “low nanomolar range”, the “CHO-K1 FACS” value [1] was “Yes” and the “Off Target” value (α1β1, α2β1 and/or α10β1) was “No”. The “inhibition of αSMA expression / FMT” value [2] was “only inhibited FMT” and the “Inhibition of FMT” value [2] was “Yes”.

B5: 8-P20: mouse anti-α11β1 mAb; VH SEQ ID NO: 105, VL SEQ ID NO: 106 (antibody, V domains shown)
VH: KVMLVESGGALVKPGGSLKLSCVASGFTFSNYAMSWVRQTPEKRLEWVATISSGGYYTYYPDSVKGRFTISRDNARNTLFLQMSSLRSEDTAMFYCAREDDYGRYSYTMDYWGQGTSVTVSS
VL: DVVMTQTPLSLPVSLGDQVSISCRCSQSLVHSNGNTYLHWYLQKPGQSPQLLIYKISNRFSGVPDRFSGSGSGTDFTLKISRVEAEDLGVYFCSQSTHVPYTFGGGTELEIK
B5 was tested, and the “CHO-K1 binding EC50 (in words)” value [1] was “low nanomolar range”, the “CHO-K1 FACS” value [1] was “Yes” and the “Off Target” value (α1β1, α2β1 and/or α10β1) was “No”. For the same molecule, the “Inhibition of FMT” value [2] was “No”.

B6: 8-J17: mouse anti-α11β1 mAb; VH SEQ ID NO: 113, VL SEQ ID NO: 114 (antibody, V domains shown)
VH: QVQLQQSGAELAKPGASVKMSCKASGYTFTNYWMHWVKQRPGQGLEWIGYINPNNGYTEYNQRFKDKATLTADRSSTTAYMQLSSLTSEDSAVYYCARSDIITTDYWGQGTTLTVSS
VL: DVVMTQTPLSLPVSLGDQASISCRSSQSLVYSNGNTYLHWYLQKPGQSPKLLIYKVSNRFSGVPDRFSGSGSGTDFTLKISRVEAEDLGVYFCSQSTHVPWTFGGGTKLEIK
In the case of B6, the “CHO-K1 binding EC50 (in words)” value [1] is reported as “low nanomolar range”, the “CHO-K1 FACS” value [1] is reported as “Yes” and the “Off Target” value (α1β1, α2β1 and/or α10β1) is reported as “Yes”. The “inhibition of αSMA expression / FMT” value [2] was “only inhibited FMT” and the “Inhibition of FMT” value [2] was “Yes”.

B7: 79E3E3: rat anti-α11β1 mAb; VH SEQ ID NO: 145, VL SEQ ID NO: 146 (antibody, V domains shown)
VH: MDWLWNLLFLMVVAQSAQAQIQLVQSGPEVKKPGESVKISCKASGYTFTDYAMNWVKQAPGNGLKWMGWINTQTGKPTYADDFKQRFVFSLETSARTTYLQINNLNIEDTATYFCTRLGTGNTKGFAYWGQGTLVTVSS
VL: MESQTHVLISLLLCVSGTCGDILINQSPASLTVSAGERVTMSCKSSQSLLYSENNQDYLAWYQQKPGQFPKLLIYGASNRHTGVPDRFTGSGSGTDFTLTISSVQAEDLADYYCEQTYRYPFTFGSGTKLEIK
For B7, the “CHO-K1 FACS” value [1] was “Yes”, the “Off Target” value (α1β1, α2β1 and/or α10β1) was “No” and the “inhibition of αSMA expression / FMT” value [2] was “failed to decrease αSMA expression”. The “Inhibition of FMT” value [2] was “No”.
